Results published in paper PMC10521239 (Protein Science : A Publication of the Protein Society, 2023).

Target: HPC4 tagged human fIX without the gamma-carboxyglutamic (GLA) domain, wild type (Homo sapiens)
Assay: ELISA

Sequence of HPC4 tagged human fIX without the gamma-carboxyglutamic (GLA) domain, wild type (Homo sapiens) (P00740 93-461): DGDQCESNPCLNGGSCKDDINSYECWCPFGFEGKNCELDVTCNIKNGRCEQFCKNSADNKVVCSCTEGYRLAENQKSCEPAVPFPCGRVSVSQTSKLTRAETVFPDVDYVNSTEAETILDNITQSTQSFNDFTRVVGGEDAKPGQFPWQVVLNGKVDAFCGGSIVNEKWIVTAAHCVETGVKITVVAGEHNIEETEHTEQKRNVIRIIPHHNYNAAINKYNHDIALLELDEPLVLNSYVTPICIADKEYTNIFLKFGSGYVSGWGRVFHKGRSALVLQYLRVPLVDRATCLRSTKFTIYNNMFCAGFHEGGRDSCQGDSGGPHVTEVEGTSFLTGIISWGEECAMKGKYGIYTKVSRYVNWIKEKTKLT

B1: anti-fIXa NN-8895 full-length mAb (antibody, V domains shown)
VH: EVQLVESGGGLVQPGRSLRLSCAASGFIFDDYAMHWVRQVPGKGLEWVSGISWNSDNIGYVDSVKGRFTISRDNAKNSLYLQMNSLRIEDTALYYCAKAFGSGSYYNGFDYWGQGALVTVSS
VL: DIQMTQSPSTLSASAGDRVTISCRASQSISSWLAWYQQKPGKAPKLLIYKASSLESGVPSRFSGSGSGTEFTLTISSLQPDDFATYYCQEYNSYIRTFGQGTKVEIK
binding result: binds
